The text below walks through data of article PMC5349785 (Molecular Biology of the Cell, 2017).

The target of assay [1] is T1, Vps35 with C-terminal TAP tag (S. cerevisiae, UniProt P34110 1-944).
T1 sequence: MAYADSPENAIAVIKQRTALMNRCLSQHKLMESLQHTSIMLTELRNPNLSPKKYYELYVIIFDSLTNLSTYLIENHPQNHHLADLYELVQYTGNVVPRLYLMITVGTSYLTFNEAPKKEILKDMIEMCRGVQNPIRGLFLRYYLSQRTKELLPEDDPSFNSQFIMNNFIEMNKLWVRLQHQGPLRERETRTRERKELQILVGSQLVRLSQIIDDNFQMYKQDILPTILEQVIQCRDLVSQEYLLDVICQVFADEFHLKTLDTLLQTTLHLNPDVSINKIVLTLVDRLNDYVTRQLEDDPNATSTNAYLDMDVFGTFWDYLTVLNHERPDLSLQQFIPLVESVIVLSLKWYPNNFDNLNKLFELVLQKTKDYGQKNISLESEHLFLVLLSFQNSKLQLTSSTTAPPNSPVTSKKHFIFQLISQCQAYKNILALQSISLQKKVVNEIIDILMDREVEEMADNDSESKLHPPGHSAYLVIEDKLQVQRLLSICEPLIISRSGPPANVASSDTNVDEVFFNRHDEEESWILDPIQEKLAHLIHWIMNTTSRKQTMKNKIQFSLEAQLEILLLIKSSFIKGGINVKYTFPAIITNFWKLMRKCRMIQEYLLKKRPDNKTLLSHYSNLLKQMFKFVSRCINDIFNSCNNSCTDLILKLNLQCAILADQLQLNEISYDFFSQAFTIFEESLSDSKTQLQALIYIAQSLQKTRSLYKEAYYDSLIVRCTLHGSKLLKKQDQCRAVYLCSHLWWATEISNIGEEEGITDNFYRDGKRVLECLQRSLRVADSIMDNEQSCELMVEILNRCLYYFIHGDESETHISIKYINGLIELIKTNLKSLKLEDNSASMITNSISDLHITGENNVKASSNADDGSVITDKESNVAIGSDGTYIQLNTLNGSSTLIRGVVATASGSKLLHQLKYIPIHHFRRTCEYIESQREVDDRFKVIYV
As to the kind of experiment: tandem affinity purification.

Assay [2] deals with T2, Vps5 with C-terminal TAP tag (S. cerevisiae, UniProt Q92331 1-675).
T2 sequence: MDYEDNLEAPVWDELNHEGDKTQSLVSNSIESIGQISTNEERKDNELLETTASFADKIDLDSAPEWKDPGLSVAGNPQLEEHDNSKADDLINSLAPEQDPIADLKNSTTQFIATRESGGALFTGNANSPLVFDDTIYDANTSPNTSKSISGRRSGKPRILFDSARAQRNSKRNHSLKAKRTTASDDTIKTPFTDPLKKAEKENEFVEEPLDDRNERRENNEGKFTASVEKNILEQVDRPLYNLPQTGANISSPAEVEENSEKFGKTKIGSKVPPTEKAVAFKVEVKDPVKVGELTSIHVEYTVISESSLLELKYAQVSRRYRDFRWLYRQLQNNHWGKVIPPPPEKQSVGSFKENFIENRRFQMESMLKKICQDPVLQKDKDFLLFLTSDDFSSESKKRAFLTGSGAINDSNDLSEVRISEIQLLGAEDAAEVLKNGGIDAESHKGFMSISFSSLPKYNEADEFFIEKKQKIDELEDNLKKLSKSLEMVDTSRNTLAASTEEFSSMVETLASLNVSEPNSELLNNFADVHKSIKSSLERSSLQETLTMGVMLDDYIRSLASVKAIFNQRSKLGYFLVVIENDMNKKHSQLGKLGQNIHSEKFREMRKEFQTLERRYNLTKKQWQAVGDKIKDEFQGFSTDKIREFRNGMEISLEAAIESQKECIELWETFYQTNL
As to the kind of experiment: tandem affinity purification.

Assay [3] deals with cargo selection complex (CSC; Vps35, Vps26, Vps29) (S. cerevisiae, UniProt P34110;P40335;P38759). In words: pull-down.
Assay [4] addresses CSC with GFP-tagged Vps29 (CSC-GFP) (S. cerevisiae, UniProt P34110;P40335;P38759). In words: pull-down.

B1: Vps29 (natural protein)
chain: MLLLALSDAHIPDRATDLPVKFKKLLSVPDKISQVALLGNSTKSYDFLKFVNQISNNITIVRGEFDNGHLPSTKKDKASDNSRPMEEIPMNSIIRQGALKIGCCSGYTVVPKNDPLSLLALARQLDVDILLWGGTHNVEAYTLEGKFFVNPGSCTGAFNTDWPIVFDVEDSDEAVTSEVDKPTKENQSEDDDAKGGSTGKEQPGSYTPKEGTAGERENENESNVKPENQFKEDEVDMSDSDINGSNSPSFCLLDIQGNTCTLYIYLYVNGEVKVDKVVYEKE
B1: in assay [1], the binding result was “binds”.

B2: Vps17 (natural protein)
chain: MTSAVPYDPYDDLDNNPFAEPQEEDSEPAATTTDGSSSMSEERVGTEQTAASVQDNGTANNIQNGLGEEGNATRSKTSNEHNENQQPSQPSERVILPERSDEKKKYTLLAKVTGLERFGSATGKKENPTIIFDCSTNLPTFRKQQYKNVKKSYEEFHQLFKYLNVAIQESFVPTLPSAYTTFGINSEEDRMKVTRNFQLWFNRLSQDPLIIRNEEVAFFIESDFNTYTPINKSKSLASGLKRKTLKQLAPPYDEITELAEFRPLVKSIYVVSQSLQEKLLRVSRNRKMMVQEENAFGQDFVNLDEHNKLYRRYGKILTAVGDIDSIIATMDMATLYDGLEWIVRDAYAVKEALTNRHFIMRNLVQAQQNSKAKQEQARRFRSRRDINPMKIDEALRQLKAAAKNEQVLTLKLQRITSNMIIERKQWISWYEEWIRSSIKEFTLRKIEYERKKLTLLERVRSDIRKADENGGLSRLGRHAVSNNNSDTSQTLKGDSWTGESNRKSQIPINKIAHTEFDDELFTEDDGYNSQDSDTTSLNARHAASLLGMSTK
In the case of B2, the binding result in assay [2] is “binds”.

B3: Vps26 (natural protein)
chain: MSIFFKPPIDIEILFDNEESRKHVDIATRSSNSSYKSMKESLPVYEDGESLGGIVTLRVRDSKKVDHLGIKVSVIGSIDMLKSHGSGNSSSKKVTSSTSSSSSNGSVDVRKNSVDQFLCQSYDLCPAGELQHSQSFPFLFRDLSKRYESYKGKNVDVAYYVKVTVMRKSTDISKIKRFWVYLYNSVTTAPNTLSANETKATTNDIAGGNYAADNASDNTQTKSTQGEAADVNQVLPISHSNNEPKPVRLDIGIENCLHIEFEYAKSQYSLKEVIVGRIYFLLTRLRIKHMELSLITRESSGLQTSNVMTDSTAIRYEIMDGSSVKGETIPIRLFLSGYDLTPNMSCNYFNVKNYLSLVIIDEDGRRYFKQSEITLYRTR
In the case of B3, the binding result in assay [1] is “binds”.

B4: GST-tagged Ypt7 (natural protein)
chain: MSSRKKNILKVIILGDSGVGKTSLMHRYVNDKYSQQYKATIGADFLTKEVTVDGDKVATMQVWDTAGQERFQSLGVAFYRGADCCVLVYDVTNASSFENIKSWRDEFLVHANVNSPETFPFVILGNKIDAEESKKIVSEKSAQELAKSLGDIPLFLTSAKNAINVDTAFEEIARSALQQNQADTEAFEDDYNDAINIRLDGENNSCSC
B4: the binding result in assay [3] and in assay [4] was “binds” in each case.
